Data from paper PMC7672080.

Key:
[1] = target: mCherry-tagged neuroligin-1 (UniProt Q99K10)
[2] = target: mCherry-tagged neuroligin-1 (UniProt Q99K10); remark: listed apart in the source

Sequence of UniProt Q99K10 (Q99K10 46-843): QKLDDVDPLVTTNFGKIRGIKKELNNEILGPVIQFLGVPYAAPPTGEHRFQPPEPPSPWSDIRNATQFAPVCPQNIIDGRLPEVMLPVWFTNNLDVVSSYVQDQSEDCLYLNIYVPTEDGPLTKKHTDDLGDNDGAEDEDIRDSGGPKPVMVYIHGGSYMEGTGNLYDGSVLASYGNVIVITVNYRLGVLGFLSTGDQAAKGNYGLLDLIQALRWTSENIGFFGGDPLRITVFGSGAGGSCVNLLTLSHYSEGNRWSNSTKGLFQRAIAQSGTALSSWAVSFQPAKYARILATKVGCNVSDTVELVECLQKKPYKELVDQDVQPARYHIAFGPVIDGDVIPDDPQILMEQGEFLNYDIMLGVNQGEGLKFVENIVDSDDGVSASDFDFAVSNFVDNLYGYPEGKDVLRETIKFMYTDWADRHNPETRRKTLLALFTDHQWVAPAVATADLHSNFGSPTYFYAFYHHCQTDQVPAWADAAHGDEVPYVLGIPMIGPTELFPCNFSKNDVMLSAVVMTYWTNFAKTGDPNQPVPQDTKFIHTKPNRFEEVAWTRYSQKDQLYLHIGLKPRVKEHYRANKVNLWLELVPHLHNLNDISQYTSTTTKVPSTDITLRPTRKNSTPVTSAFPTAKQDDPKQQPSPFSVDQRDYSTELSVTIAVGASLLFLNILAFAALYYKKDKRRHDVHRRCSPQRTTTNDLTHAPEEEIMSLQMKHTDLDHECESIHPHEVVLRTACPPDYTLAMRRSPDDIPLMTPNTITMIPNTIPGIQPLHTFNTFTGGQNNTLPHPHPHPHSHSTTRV

GFP-tagged neurexin-1β (from UniProt Q63373 47-468) (receptor)
enrichment of GFP-Nrx1β at cell–cell contacts between co-cultured COS-7 cells expressing GFP-Nrx1β and cells expressing Nlg1-mCherry (fluorescence microscopy) [1]: 3.9
diffusion coefficient of single GFP-Nrx1β molecules inside the contact with a cell expressing Nlg1-mCherry (uPAINT single particle tracking at 50 Hz; Dout = 0.3 µm^2/s outside the contact) [2]: 0.04 µm^2/s
